Experimental data from patent US20250352659A1, “SELF-STABILIZING LINKER CONJUGATES” (priority 2023, published 2025).
Like-named read-outs stand apart in the source and are kept apart here.

Assays:
Assay type in all cases: physicochemical
[1] = Conjugator-antibody conjugate stability in pH 7.4 and 8.0 buffer with and without GSH;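 note: conjugate hydrolysis tracked by LC-MS analysis of reduced samples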
[2] = Conjugator-antibody conjugate stability in formulation buffer (pH 5.5 20 mM histidine buffer); details: pH 5.5, 22 °C
Procedure: After the conjugation and hydrolysis steps described above (see “DAR8 antibody drug conjugate/conjugator-antibody conjugate preparation”), conjugator-antibody conjugates were incubated in formulation buffer (pH 5.5 20 mM histidine buffer) or glutathione (GSH) buffer (pH 7.4 or 8.0), […] Hydrolysis status was monitored via reduced LCMS. Results are presented in Table 6, Table 7, and FIGS. 2A-23B.

[3] = Conjugator-antibody conjugate maleimide hydrolysis (ring opening) kinetics by reduced LCMS; details: for half-life: buffer; for RO Completed Time (>95%): time for the maleimide ring to open in more than 95% of the conjugators
Procedure: After the conjugation step, the ADC (or conjugator-antibody conjugate) was subjected to buffer exchange into ring opening buffer (pH 6.5˜9.0, PBS, borate or tris buffer) and the solution was left at 22 or 37° C. for 1˜48 h. The maleimide ring opening process was monitored via reduced LCMS. Once the conjugated maleimide hydrolysis was completed, the resulting ADCs were buffer exchanged into basic tris pH 8.0-8.5 buffer or acidic histidine-acetate pH 5.0-6.5 buffer via dialysis.
LCMS method to monitor and determine maleimide hydrolysis. LC-MS analysis was carried out under the following measurement conditions: • LC-MS system: Vanquish Flex UHPLC and Orbitrap Exploris 240 Mass Spectrometer • Column: MAbPac™ RP, 2.1*50 mm, 4 μm, 1,500 Å, Thermo Scientific™ • Column temperature: 80° C. • Mobile phase A: 0.1% formic acid (FA) aqueous solution • Mobile phase B: Acetonitrile solution containing 0.1% formic acid (FA) • Gradient program 1: 25% B-25% B (0 min-2 min), 25% B-50% B (2 min-18 min), 50% B-90% B (18 min-18.1 min), 90% B-90% B (18.1 min-20 min), 90% B-25% B (20 min-20.1 min), 25% B-25% B (20.1 min-25 min) • Gradient program 2 • Injected sample amount: 2 μg • MS parameters: Intact and denaturing MS data were acquired in HMR mode at setting of R=15k and deconvolved using the ReSpect™ algorithm and Sliding Window integration in Thermo Scientific™ BioPharma Finder™ 4.0 software.
Results for ring opening times measured by the LCMS method described above for monitoring ring hydrolysis are presented in Table 3 as RO T1/2 (h) (i.e., the time, in hours, for 50% of the maleimide rings to open).
Conjugator-antibody conjugate maleimide hydrolysis (ring opening) kinetics are presented in FIGS. 1A-1L, Table 3 (for pH 7.0 reaction conditions, hydrolysis T1/2), and Table 5. The data in Table 5 was generated by the LCMS method described above and includes the time, in hours, for the maleimide ring to open in more than 95% of the conjugators, after antibody conjugation (“RO Completed Time (>95%) (h)”). The results for conjugator-antibody conjugate 3-1 indicate that after 24 hours, about 0% of maleimide rings were open; the results for conjugator-antibody conjugate 3-3 indicate that after 24 hours, about 28% of maleimide rings were open.

[4] = pH 7.0, time for 50% of the maleimide rings to open, read-out: RO T1/2 (converted)

SMILES	MS DAR-T = 0 h [2]	MS DAR ([3]; pH 7, time point 1 h)	RO (%) LC ([3]; pH 7, time point 1 h) [%]	MS DAR ([3]; pH 7, time point 3 h)	RO (%) HC ([3]; pH 7, time point 3 h) [%]	RO (%) LC ([3]; pH 7, time point 3 h) [%]	RO (%) Total ([3]; pH 7, time point 3 h) [%]	MS DAR ([3]; pH 7, time point 5 h)	RO (%) HC ([3]; pH 7, time point 5 h) [%]	RO (%) LC ([3]; pH 7, time point 5 h) [%]	RO (%) Total ([3]; pH 7, time point 5 h) [%]	MS DAR ([3]; pH 7, time point 7 h)	RO (%) HC ([3]; pH 7, time point 7 h) [%]	RO (%) LC ([3]; pH 7, time point 7 h) [%]	RO (%) Total ([3]; pH 7, time point 7 h) [%]	MS DAR ([3]; pH 7, time point 24 h)	RO (%) HC ([3]; pH 7, time point 24 h) [%]	RO (%) LC ([3]; pH 7, time point 24 h) [%]	RO (%) Total ([3]; pH 7, time point 24 h) [%]	RO Completed Time (>95%) ([3]; pH 7) [h]	also measured
NCC(COC(=O)NCCOCCOCCOCCOCCC(=O)O)N1C(=O)C=CC1=O (stereo not drawn) [3-4]	8.00	7.96	23.19	7.98	88.19	75.33	84.98	7.98	90.01	87.91	89.49	7.98	99.07	95.37	98.15	7.98	99.08	99.66	99.23	7	MS DAR ([1]; incubation 20 h, pH 7.4, 22 °C): 8.00; MS DAR ([1]; incubation 20 h, pH 7.4, 37 °C): 8.00; MS DAR ([1]; incubation 20 h, pH 8.0, 22 °C): 8.00; MS DAR-T = 168 h ([2]; incubation 168 h): 8.00; Maleimide ring opening ratio (%) at T = 168 h ([2]; incubation 168 h): 98.86%; half-life [3, 4]: 96 min; RO (%) HC ([3]; pH 7, time point 1 h): 51.56%; RO (%) Total ([3]; pH 7, time point 1 h): 44.47%
CN(C)C(=O)CCOCC(N)CN1C(=O)C=CC1=O (stereo not drawn) [3-7]	8.00	8.52	28.33	8	79.61	60.08	74.73	8	88.54	77.85	85.87	8	87.98	86.34	87.57	8	90.8	92.99	91.35	>24	MS DAR ([1]; incubation 20 h, pH 7.4, 22 °C): 8.00; MS DAR ([1]; incubation 20 h, pH 7.4, 37 °C): 8.00; MS DAR ([1]; incubation 20 h, pH 8.0, 22 °C): 8.00; MS DAR-T = 168 h ([2]; incubation 168 h): 8.00; Maleimide ring opening ratio (%) at T = 168 h ([2]; incubation 168 h): 97.99%; half-life ([3]; pH 7): 102 min; RO (%) HC ([3]; pH 7, time point 1 h): 40.83%; RO (%) Total ([3]; pH 7, time point 1 h): 37.71%
CN(C)C(=O)CN(C)C(=O)OCC(CN)N1C(=O)C=CC1=O (stereo not drawn) [3-8]	7.76	7.74	44.94	7.88	96.11	80.15	92.12	7.78	99.49	92.96	97.85	7.8	99.47	94.42	98.21	7.8	99.55	95.48	98.53	5	MS DAR ([1]; incubation 20 h, pH 7.4, 22 °C): 7.92; MS DAR ([1]; incubation 20 h, pH 7.4, 37 °C): 7.92; MS DAR ([1]; incubation 20 h, pH 8.0, 22 °C): 7.88; MS DAR-T = 168 h ([2]; incubation 168 h): 7.80; Maleimide ring opening ratio (%) at T = 168 h ([2]; incubation 168 h): 95.50%; half-life [3, 4]: 96 min
CC(C)N(CCC(=O)N(C)C)C(=O)OCC(CN)N1C(=O)C=CC1=O (stereo not drawn) [3-9]	8.00	7.94	40.06	7.94	99.84	79.93	94.86	7.96	99.07	89.36	96.64	7.96	100	93.56	98.39	7.96	100	99.17	99.79	5	MS DAR ([1]; incubation 20 h, pH 7.4, 22 °C): 8.00; MS DAR ([1]; incubation 20 h, pH 7.4, 37 °C): 8.00; MS DAR ([1]; incubation 20 h, pH 8.0, 22 °C): 8.00; MS DAR-T = 168 h ([2]; incubation time printed 240 h): 8.00; Maleimide ring opening ratio (%) at T = 168 h ([2]; incubation time printed 240 h): 98.51%; half-life [3, 4]: 48 min; RO (%) HC ([3]; pH 7, time point 1 h): 66.09%; RO (%) Total ([3]; pH 7, time point 1 h): 59.58%
CN(C)C(=O)CCCCC(CN)N1C(=O)C=CC1=O (stereo not drawn) [3-10]	8.00	8	21.63	8	76.09	49.46	69.43	8	91.86	64.05	84.91	8	98.26	83.47	94.56	8	99.52	100	99.64	7	MS DAR ([1]; incubation 20 h, pH 7.4, 22 °C): 8.00; MS DAR ([1]; incubation 20 h, pH 7.4, 37 °C): 8.00; MS DAR ([1]; incubation 20 h, pH 8.0, 22 °C): 8.00; MS DAR-T = 168 h ([2]; incubation 168 h): 8.00; Maleimide ring opening ratio (%) at T = 168 h ([2]; incubation 168 h): 98.38%; half-life [3, 4]: 120 min; RO (%) HC ([3]; pH 7, time point 1 h): 42.51%; RO (%) Total ([3]; pH 7, time point 1 h): 37.29%
CN(C)C(=O)CCNC(=O)NCC(CN)N1C(=O)C=CC1=O (stereo not drawn) [3-12]	8.02	8	27.31	8	89.82	74.84	86.08	8	95.33	78.30	91.07	8	99.07	88.53	96.44	8	99.64	95.87	98.70	7	MS DAR ([1]; incubation 24 h, pH 7.4, 22 °C): 8.00; MS DAR ([1]; incubation 24 h, pH 7.4, 37 °C): 8.00; MS DAR ([1]; incubation 24 h, pH 8.0, 22 °C): 8.00; MS DAR-T = 168 h ([2]; incubation 168 h): 8.02; Maleimide ring opening ratio (%) at T = 168 h ([2]; incubation 168 h): 97.83%; half-life [3, 4]: 96 min; RO (%) HC ([3]; pH 7, time point 1 h): 45.46%; RO (%) Total ([3]; pH 7, time point 1 h): 40.92%
CN(C)C(=O)CCNC(=O)OCCC(CN)N1C(=O)C=CC1=O (stereo not drawn) [3-13]	7.84	8	21.50	8	92.96	64.20	85.77	8	100.00	74.30	93.58	8	99.68	93.68	98.18	8	100.00	94.99	98.75	7	MS DAR ([1]; incubation 24 h, pH 7.4, 22 °C): 7.90; MS DAR ([1]; incubation 24 h, pH 7.4, 37 °C): 7.90; MS DAR ([1]; incubation 24 h, pH 8.0, 22 °C): 7.90; MS DAR-T = 168 h ([2]; incubation 168 h): 7.88; Maleimide ring opening ratio (%) at T = 168 h ([2]; incubation 168 h): 98.33%; half-life ([3]; pH 7): 102 min; RO (%) HC ([3]; pH 7, time point 1 h): 43.63%; RO (%) Total ([3]; pH 7, time point 1 h): 38.10%
CN(C)C(=O)CCOCCC(CN)N1C(=O)C=CC1=O (stereo not drawn) [3-14]	8.00	8	17.39	8	67.87	32.97	59.15	8	85.71	77.46	83.65	8	95.45	72.00	89.59	8	99.69	95.83	98.73	24	MS DAR ([1]; incubation 24 h, pH 7.4, 22 °C): 7.98; MS DAR ([1]; incubation 24 h, pH 7.4, 37 °C): 8.00; MS DAR ([1]; incubation 24 h, pH 8.0, 22 °C): 8.00; MS DAR-T = 168 h ([2]; incubation 168 h): 8.00; Maleimide ring opening ratio (%) at T = 168 h ([2]; incubation 168 h): 97.15%; half-life [3, 4]: 120 min; RO (%) HC ([3]; pH 7, time point 1 h): 46.79%; RO (%) Total ([3]; pH 7, time point 1 h): 39.44%
